{"source": "patent US20230416330A1", "about": "“Optimized GIP Peptide Analogues” (Antag Therapeutics ApS, priority 2019, published 2023)", "target": "T1, human GIP receptor (human, UniProt P48546 22-466)", "T1 sequence (looked up)": "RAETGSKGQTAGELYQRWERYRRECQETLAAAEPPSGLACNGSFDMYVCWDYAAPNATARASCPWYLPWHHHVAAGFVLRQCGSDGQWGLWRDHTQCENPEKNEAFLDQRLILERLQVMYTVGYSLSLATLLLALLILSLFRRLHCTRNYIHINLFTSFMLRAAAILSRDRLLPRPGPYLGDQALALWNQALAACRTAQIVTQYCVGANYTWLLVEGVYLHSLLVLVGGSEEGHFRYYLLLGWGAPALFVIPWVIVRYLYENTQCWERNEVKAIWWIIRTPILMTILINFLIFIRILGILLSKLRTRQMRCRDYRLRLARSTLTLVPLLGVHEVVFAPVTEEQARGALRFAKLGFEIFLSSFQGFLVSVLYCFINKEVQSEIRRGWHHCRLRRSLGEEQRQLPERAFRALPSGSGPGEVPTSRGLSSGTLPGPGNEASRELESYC", "experiment": "cell-based or functional assay", "note": "No end group written: not given here. *: point of attachment. C16 diacid = O=C(O)CCCCCCCCCCCCCCC(=O)*", "data": [{"binder": "EGTFISDYSIAMDAIK(C16 diacid)QQDFVEWLLAQKPSSGAPPPS-OH (N-terminus assumed; SMILES CC[C@H](C)[C@H](NC(=O)[C@H](C)NC(=O)[C@H](CC(=O)O)NC(=O)[C@H](CCSC)NC(=O)[C@H](C)NC(=O)[C@@H](NC(=O)[C@H](CO)NC(=O)[C@H](Cc1ccc(O)cc1)NC(=O)[C@H](CC(=O)O)NC(=O)[C@H](CO)NC(=O)[C@@H](NC(=O)[C@H](Cc1ccccc1)NC(=O)[C@@H](NC(=O)CNC(=O)[C@@H](N)CCC(=O)O)[C@@H](C)O)[C@@H](C)CC)[C@@H](C)CC)C(=O)N[C@@H](CCCCNC(=O)CCCCCCCCCCCCCCC(=O)O)C(=O)N[C@@H](CCC(N)=O)C(=O)N[C@@H](CCC(N)=O)C(=O)N[C@@H](CC(=O)O)C(=O)N[C@@H](Cc1ccccc1)C(=O)N[C@H](C(=O)N[C@@H](CCC(=O)O)C(=O)N[C@@H](Cc1c[nH]c2ccccc12)C(=O)N[C@@H](CC(C)C)C(=O)N[C@@H](CC(C)C)C(=O)N[C@@H](C)C(=O)N[C@@H](CCC(N)=O)C(=O)N[C@@H](CCCCN)C(=O)N1CCC[C@H]1C(=O)N[C@@H](CO)C(=O)N[C@@H](CO)C(=O)NCC(=O)N[C@@H](C)C(=O)N1CCC[C@H]1C(=O)N1CCC[C@H]1C(=O)N1CCC[C@H]1C(=O)N[C@@H](CO)C(=O)O)C(C)C)", "note": "[AT748]", "values": [{"measurement": "nM (Kb, Gaddum assay, cAMP)", "result": 0.42, "unit": "nM"}, {"measurement": "pKb (Gaddum assay, cAMP)", "result": 9.4}]}, {"binder": "EGTFISDYSIAMDKIK(C16 diacid)QQDFVEWLLAEKPSSGAPPPS-OH (N-terminus assumed; SMILES CC[C@H](C)[C@H](NC(=O)[C@H](CO)NC(=O)[C@H](Cc1ccc(O)cc1)NC(=O)[C@H](CC(=O)O)NC(=O)[C@H](CO)NC(=O)[C@@H](NC(=O)[C@H](Cc1ccccc1)NC(=O)[C@@H](NC(=O)CNC(=O)[C@@H](N)CCC(=O)O)[C@@H](C)O)[C@@H](C)CC)C(=O)N[C@@H](C)C(=O)N[C@@H](CCSC)C(=O)N[C@@H](CC(=O)O)C(=O)N[C@@H](CCCCN)C(=O)N[C@H](C(=O)N[C@@H](CCCCNC(=O)CCCCCCCCCCCCCCC(=O)O)C(=O)N[C@@H](CCC(N)=O)C(=O)N[C@@H](CCC(N)=O)C(=O)N[C@@H](CC(=O)O)C(=O)N[C@@H](Cc1ccccc1)C(=O)N[C@H](C(=O)N[C@@H](CCC(=O)O)C(=O)N[C@@H](Cc1c[nH]c2ccccc12)C(=O)N[C@@H](CC(C)C)C(=O)N[C@@H](CC(C)C)C(=O)N[C@@H](C)C(=O)N[C@@H](CCC(=O)O)C(=O)N[C@@H](CCCCN)C(=O)N1CCC[C@H]1C(=O)N[C@@H](CO)C(=O)N[C@@H](CO)C(=O)NCC(=O)N[C@@H](C)C(=O)N1CCC[C@H]1C(=O)N1CCC[C@H]1C(=O)N1CCC[C@H]1C(=O)N[C@@H](CO)C(=O)O)C(C)C)[C@@H](C)CC)", "note": "[AT747]", "values": [{"measurement": "nM (Kb, Gaddum assay, cAMP)", "result": 14, "unit": "nM"}, {"measurement": "pKb (Gaddum assay, cAMP)", "result": 7.9}]}, {"binder": "EGTFISDYSIAMDKIK(C16 diacid)QQDFVEWLLAQK-OH (N-terminus assumed; SMILES CC[C@H](C)[C@H](NC(=O)[C@H](CO)NC(=O)[C@H](Cc1ccc(O)cc1)NC(=O)[C@H](CC(=O)O)NC(=O)[C@H](CO)NC(=O)[C@@H](NC(=O)[C@H](Cc1ccccc1)NC(=O)[C@@H](NC(=O)CNC(=O)[C@@H](N)CCC(=O)O)[C@@H](C)O)[C@@H](C)CC)C(=O)N[C@@H](C)C(=O)N[C@@H](CCSC)C(=O)N[C@@H](CC(=O)O)C(=O)N[C@@H](CCCCN)C(=O)N[C@H](C(=O)N[C@@H](CCCCNC(=O)CCCCCCCCCCCCCCC(=O)O)C(=O)N[C@@H](CCC(N)=O)C(=O)N[C@@H](CCC(N)=O)C(=O)N[C@@H](CC(=O)O)C(=O)N[C@@H](Cc1ccccc1)C(=O)N[C@H](C(=O)N[C@@H](CCC(=O)O)C(=O)N[C@@H](Cc1c[nH]c2ccccc12)C(=O)N[C@@H](CC(C)C)C(=O)N[C@@H](CC(C)C)C(=O)N[C@@H](C)C(=O)N[C@@H](CCC(N)=O)C(=O)N[C@@H](CCCCN)C(=O)O)C(C)C)[C@@H](C)CC)", "note": "[AT749]", "values": [{"measurement": "nM (Kb, Gaddum assay, cAMP)", "result": 2.2, "unit": "nM"}, {"measurement": "pKb (Gaddum assay, cAMP)", "result": 8.7}]}]}
